Measurements: doi:10.1101/208041
Changes are numbered by the printed parent chain.

T1: dMpAgo (catalytically inactive MpAgo) D446A (Marinitoga piezophila) (UniProt H2J4R4)
T1 sequence: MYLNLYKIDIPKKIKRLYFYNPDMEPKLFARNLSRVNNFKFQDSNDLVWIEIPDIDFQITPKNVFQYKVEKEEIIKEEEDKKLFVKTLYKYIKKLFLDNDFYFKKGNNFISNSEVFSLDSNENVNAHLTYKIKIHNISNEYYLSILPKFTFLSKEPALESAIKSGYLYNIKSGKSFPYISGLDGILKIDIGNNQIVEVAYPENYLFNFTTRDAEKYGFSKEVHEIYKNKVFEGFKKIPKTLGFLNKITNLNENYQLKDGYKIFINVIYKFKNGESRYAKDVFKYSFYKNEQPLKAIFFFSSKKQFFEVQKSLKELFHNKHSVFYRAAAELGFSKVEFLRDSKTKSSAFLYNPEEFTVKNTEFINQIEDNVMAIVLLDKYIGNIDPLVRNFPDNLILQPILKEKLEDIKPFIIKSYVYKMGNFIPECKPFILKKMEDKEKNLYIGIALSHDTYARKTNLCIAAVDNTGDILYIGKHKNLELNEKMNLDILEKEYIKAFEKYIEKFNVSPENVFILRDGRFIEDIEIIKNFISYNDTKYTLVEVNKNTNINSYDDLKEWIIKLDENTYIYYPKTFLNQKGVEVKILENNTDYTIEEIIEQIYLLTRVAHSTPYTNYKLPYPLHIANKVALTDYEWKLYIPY

T2: dMpAgo (catalytically inactive MpAgo) (Marinitoga piezophila, UniProt H2J4R4 1-639, D446A)
T2 sequence: T1 sequence

T3: MpAgo WT (Marinitoga piezophila, UniProt H2J4R4 1-639)
T3 sequence: T1 sequence with A446D

B1: U6 guide / A target (mixed)
RNA 1: UGCGGUUGCCAUAUGCAACUU
RNA 2: GGCAGCAUUCAACCAUAUGGCAACCGCAUACAGCCAAG
modifications: BrdU at guide 1
B2: A7 guide / U target (mixed)
RNA 1: UAGCGGAUGCCAUAUCCAACU
RNA 2: B1 RNA 2 with A23U
modifications: BrdU at guide 1
B3: C7 guide / G target (mixed)
RNA 1: UAGCGGCUGCCAUAUCCAACU
RNA 2: B1 RNA 2 with A23G
modifications: BrdU at guide 1
B4: U7 guide / A target (mixed)
RNA 1: UAGCGGUUGCCAUAUCCAACU
RNA 2: B1 RNA 2
modifications: BrdU at guide 1
B5: G7 guide / C target (mixed)
RNA 1: UAGCGGGUGCCAUAUCCAACU
RNA 2: B1 RNA 2 with A23C
modifications: BrdU at guide 1
B6: A7 guide / mm3 (mixed)
RNA 1: UAGCGGAUGCCAUAUCCAACU
RNA 2: B1 RNA 2 with A23U, C27A
modifications: BrdU at guide 1
B7: A7 guide / G target (mm7) (mixed)
RNA 1: UAGCGGAUGCCAUAUCCAACU
RNA 2: B1 RNA 2 with A23G
modifications: BrdU at guide 1
B8: A7 guide / mm9 (mixed)
RNA 1: UAGCGGAUGCCAUAUCCAACU
RNA 2: B1 RNA 2 with C21A, A23U
modifications: BrdU at guide 1
B9: A6 guide / mm2 (mixed)
RNA 1: UGCGGAUGCCAUAUGCAACUU
RNA 2: B1 RNA 2 with A23U, C27A
modifications: BrdU at guide 1
B10: A6 guide / mm3 (mixed)
RNA 1: UGCGGAUGCCAUAUGCAACUU
RNA 2: B1 RNA 2 with A23U, G26U
modifications: BrdU at guide 1
B11: A6 guide / mm4 (mixed)
RNA 1: UGCGGAUGCCAUAUGCAACUU
RNA 2: B1 RNA 2 with A23U, C25A
modifications: BrdU at guide 1
B12: A6 guide / mm5 (mixed)
RNA 1: UGCGGAUGCCAUAUGCAACUU
RNA 2: B1 RNA 2 with A23U, C24A
modifications: BrdU at guide 1
B13: A6 guide / mm7 (mixed)
RNA 1: UGCGGAUGCCAUAUGCAACUU
RNA 2: B1 RNA 2 with A22C, A23U
modifications: BrdU at guide 1
B14: A6 guide / mm8 (mixed)
RNA 1: UGCGGAUGCCAUAUGCAACUU
RNA 2: B1 RNA 2 with C21A, A23U
modifications: BrdU at guide 1
B15: A6 guide / mm10 (mixed)
RNA 1: UGCGGAUGCCAUAUGCAACUU
RNA 2: B1 RNA 2 with G19U, A23U
modifications: BrdU at guide 1
B16: A6 guide / mm11 (mixed)
RNA 1: UGCGGAUGCCAUAUGCAACUU
RNA 2: B1 RNA 2 with U18G, A23U
modifications: BrdU at guide 1
B17: A6 guide / mm12 (mixed)
RNA 1: UGCGGAUGCCAUAUGCAACUU
RNA 2: B1 RNA 2 with A17C, A23U
modifications: BrdU at guide 1
B18: gRNA 5'-rA (ssRNA)
RNA: AAUACAACCUACUACCUCAUU
modifications: 5'-OH
B19: gRNA 5'-rU (ssRNA)
RNA: UAUACAACCUACUACCUCAUU
modifications: 5'-OH
B20: gRNA 5'-rC (ssRNA)
RNA: CAUACAACCUACUACCUCAUU
modifications: 5'-OH
B21: rA guide / ON target (mixed)
RNA 1: AAUACAACCUACUACCUCAUU
RNA 2: GGACUAUGAUCUAGAUAUUAAUGAGGUAGUAGGUUGUAUCUCAGGAGGUC
B22: rA guide / OFF target (mixed)
RNA 1: AAUACAACCUACUACCUCAUU
RNA 2: GUUAUGUGUGUGAUUAUAUUUGUUCCAGUUCCUGUGUAAUAGACAUGGAA
B23: rC guide / ON target (mixed)
RNA 1: CAUACAACCUACUACCUCAUU
RNA 2: B21 RNA 2
B24: rC guide / OFF target (mixed)
RNA 1: CAUACAACCUACUACCUCAUU
RNA 2: B22 RNA 2
B25: rU guide / ON target (mixed)
RNA 1: UAUACAACCUACUACCUCAUU
RNA 2: B21 RNA 2
B26: rU guide / OFF target (mixed)
RNA 1: UAUACAACCUACUACCUCAUU
RNA 2: B22 RNA 2
B27: dU guide / ON target (mixed)
RNA 1: UAUACAACCUACUACCUCAUU
RNA 2: B21 RNA 2
modifications: dU at guide 1
B28: dU guide / OFF target (mixed)
RNA 1: UAUACAACCUACUACCUCAUU
RNA 2: B22 RNA 2
modifications: dU at guide 1
B29: BrdU guide / 18-nt target (mixed)
RNA 1: UAUACAACCUACUACCUCAUU
RNA 2: GGACUAUGUAGAUCUAUAAUUAGAGGUAGUAGGUUGUAUCUCAGGAGGUC
modifications: BrdU at guide 1
B30: BrdU guide / 15-nt target (mixed)
RNA 1: UAUACAACCUACUACCUCAUU
RNA 2: B29 RNA 2 with G23C, A24U, G25C
modifications: BrdU at guide 1

The molecules below were run against T1, dMpAgo (catalytically inactive MpAgo) D446A (Marinitoga piezophila) (assay: filter binding). Conditions: BrdU at guide 1; N = inosine at target 23.
Molecule “UGCGGAUGCCAUAUGCAACUU / GGCAGCAUUCAACCAUAUGGCANCCGCAUACAGCCAAG [A6 guide / I target]” has a binding signal of 19 % bound.

Same assay, conditions: BrdU at guide 1; internal desthiobiotin-TEG before last AA
With “UAUUGUGACAAGAAUGCUGUUAAAAAAAAAAA / GGCAGCAUUCAACAUUGUUGUCACAAUAUACAGCCAAG [32-nt guide / mm12]” the binding signal (fold Kd vs complementary) was > 5. With “UAUUGUGACAAGAAUGCUGUUAAAAAAAAAAA / GGCAGCAUUCAACAUUCUAGUCACAAUAUACAGCCAAG [32-nt guide / mm10]” the binding signal (fold Kd vs complementary) was > 5.

Each molecule was assayed against T2, dMpAgo (catalytically inactive MpAgo) (assay: filter binding). Conditions: not given.
B1: binds. B2: binds. B3: binds. B4: binds. B5: binds.

Molecular target: T2, dMpAgo (catalytically inactive MpAgo)
Assay: filter binding
Conditions: not given
Remark: another data set of the same source
Molecule B6 has a binding signal of 32 fold Kd vs complementary. Molecule B7 has a binding signal of 301 fold Kd vs complementary. Work on B8 yielded a binding signal of 327 fold Kd vs complementary.

Molecular target: T2, dMpAgo (catalytically inactive MpAgo)
Assay: filter binding
Conditions: not given
Remark: another data set of the same source
With B9 the binding signal was > 5 fold Kd vs complementary. For B10, the binding signal was > 5 fold Kd vs complementary. In the case of B11, the binding signal is reported as > 5 fold Kd vs complementary. With B12 the binding signal was > 5 fold Kd vs complementary. With B13 the binding signal was > 5 fold Kd vs complementary. In the case of B14, the binding signal is reported as > 5 fold Kd vs complementary. With B15 the binding signal was > 5 fold Kd vs complementary. With B16 the binding signal was > 5 fold Kd vs complementary. B17 was tested, and the binding signal was > 5 fold Kd vs complementary.

What follows are molecules tested against T3, MpAgo WT (assay: filter binding). Conditions: not given.
In the case of B18, the Kd is reported as 73 ± 10 nM. B19 showed a Kd of 81 ± 9 nM. B20 was tested, and the Kd was 104 ± 9 nM.

Molecular target: T2, dMpAgo (catalytically inactive MpAgo)
Assay: filter binding
Conditions: not given
Remark: another data set of the same source
B21 was tested, and the Kd was 12 ± 2 nM. B22 gave a Kd of 112 ± 19 nM. B23 was tested, and the Kd was 4.6 ± 0.5 nM. Work on B24 yielded a Kd of 112 ± 18 nM. B25 showed a Kd of 5 ± 0.8 nM. Molecule B26 has a Kd of 359 ± 37 nM. B27 was tested, and the Kd was 0.5 ± 0.067 nM. B28: no binding.

Molecular target: T2, dMpAgo (catalytically inactive MpAgo)
Assay: filter binding
Conditions: not given
Remark: another data set of the same source
With B29 the Kd was 0.107 ± 0.006 nM. Work on B30 yielded a Kd of 0.083 ± 0.008 nM.
